The record followed here is paper PMC10458388 (2023).

The target in the experiment is C-terminus of human Hsp90α (residues 566-732) (Homo sapiens (Human), UniProt P07900). In words: SEC-MALS-QELS. (In general: SEC sorts molecules by how far they enter the pores of the column.)
C-terminus of human Hsp90α (residues 566-732), sequence (P07900 566-732): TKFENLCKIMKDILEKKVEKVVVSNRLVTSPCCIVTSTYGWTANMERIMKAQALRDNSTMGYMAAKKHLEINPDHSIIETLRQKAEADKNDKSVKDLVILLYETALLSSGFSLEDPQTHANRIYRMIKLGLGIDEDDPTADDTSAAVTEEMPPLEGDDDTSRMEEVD

B1: Sorghum bicolor RPAP3 (RNA polymerase II-associated protein 3), isoform 2 (protein)
chain: MEYKARSSGTSGTSTKSFRDLYNMKYSSYLNDEPMPDATSEKEQGNEYFKQKKFADAIECYSRSIGLSPTAVTFANRAMAYLKLRRFKEAEDDCTEALNLDDRYIKAYSRRITARKELGKLKEAMEDAEFAISLDPNNPELRKQYSEIKALHMEKMAKKVPAPAKRAVSGIAKTADVTSHPPTISQKDTIMEVDPPVGDAMKIRESASGRSNGGSGVIINDNTIQTQGRDANLKPGPEVSVQDLAARAASRYMASTVKSVKTPKTAYDFEVSWRALSDDTAQQIQLLKSIPPASLPEIFKNALSAPFLIDIVKCSASIFRDDTALAVSILENLARVPRFDLIIMCLSSMHKSELRKIWDQVFLAEKASADDQMEALRQLRGRYIPGGWQDSMLTSS
In the case of B1, the binding result is given as “binds”.
